Measurements reported in US20210317201A1 (Boehringer Ingelheim, published 2021).
“And” between values parts separate entries of the source, which are not always exact repeats. Identical values can stand only once.

T1: recombinant human IL-23 (human, UniProt P29460 23-328)
T1 sequence 1: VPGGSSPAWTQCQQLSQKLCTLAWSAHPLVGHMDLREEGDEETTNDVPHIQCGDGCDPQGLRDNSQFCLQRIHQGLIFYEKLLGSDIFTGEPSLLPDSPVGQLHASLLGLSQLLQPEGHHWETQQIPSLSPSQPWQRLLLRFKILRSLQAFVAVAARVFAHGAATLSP
T1 sequence 2: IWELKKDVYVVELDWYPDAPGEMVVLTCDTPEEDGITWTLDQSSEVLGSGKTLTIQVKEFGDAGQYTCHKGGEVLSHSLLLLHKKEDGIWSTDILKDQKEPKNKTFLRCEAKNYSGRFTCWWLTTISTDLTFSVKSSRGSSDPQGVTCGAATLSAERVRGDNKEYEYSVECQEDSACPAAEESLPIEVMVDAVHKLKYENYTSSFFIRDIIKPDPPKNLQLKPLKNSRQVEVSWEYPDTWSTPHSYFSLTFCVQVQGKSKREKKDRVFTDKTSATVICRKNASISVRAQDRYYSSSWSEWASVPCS

T2: human IL-12 (human, UniProt P29459 23-219; P29460 23-328)
T2 sequence (looked up) 1: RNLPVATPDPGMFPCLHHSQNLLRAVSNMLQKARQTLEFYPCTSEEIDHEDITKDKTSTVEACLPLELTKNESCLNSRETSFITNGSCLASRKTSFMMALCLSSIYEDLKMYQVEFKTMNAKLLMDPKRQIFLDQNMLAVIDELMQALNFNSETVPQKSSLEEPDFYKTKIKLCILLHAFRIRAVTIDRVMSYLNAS
T2 sequence (looked up) 2: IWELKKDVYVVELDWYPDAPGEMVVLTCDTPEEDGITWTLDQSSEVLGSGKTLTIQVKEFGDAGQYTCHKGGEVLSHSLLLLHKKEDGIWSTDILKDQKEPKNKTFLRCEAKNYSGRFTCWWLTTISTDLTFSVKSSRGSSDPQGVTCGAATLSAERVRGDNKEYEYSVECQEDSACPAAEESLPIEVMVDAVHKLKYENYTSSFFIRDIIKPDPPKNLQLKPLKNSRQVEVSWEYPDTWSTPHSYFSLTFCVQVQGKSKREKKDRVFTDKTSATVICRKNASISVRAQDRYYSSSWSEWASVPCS

T3: Human IL-23 no linker (human, UniProt P29460 23-328)
T3 construct: also called recombinant IL-23 without linker
T3 sequence 1: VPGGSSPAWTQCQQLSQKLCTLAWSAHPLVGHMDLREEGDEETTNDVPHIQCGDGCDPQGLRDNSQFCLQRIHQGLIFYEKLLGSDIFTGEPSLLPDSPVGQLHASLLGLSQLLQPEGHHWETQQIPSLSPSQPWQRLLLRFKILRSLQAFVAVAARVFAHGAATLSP
T3 sequence 2: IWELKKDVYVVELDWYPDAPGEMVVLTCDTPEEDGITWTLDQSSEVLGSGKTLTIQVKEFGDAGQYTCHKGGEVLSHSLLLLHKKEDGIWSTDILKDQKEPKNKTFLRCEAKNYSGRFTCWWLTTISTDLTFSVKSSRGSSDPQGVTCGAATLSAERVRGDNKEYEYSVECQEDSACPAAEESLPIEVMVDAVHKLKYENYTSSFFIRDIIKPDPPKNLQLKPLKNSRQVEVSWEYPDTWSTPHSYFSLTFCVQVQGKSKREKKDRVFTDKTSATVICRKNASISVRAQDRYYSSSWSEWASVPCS

T4: natural human IL-23 from activated THP-1 cells (human, UniProt P29460 23-328)
T4 sequence 1: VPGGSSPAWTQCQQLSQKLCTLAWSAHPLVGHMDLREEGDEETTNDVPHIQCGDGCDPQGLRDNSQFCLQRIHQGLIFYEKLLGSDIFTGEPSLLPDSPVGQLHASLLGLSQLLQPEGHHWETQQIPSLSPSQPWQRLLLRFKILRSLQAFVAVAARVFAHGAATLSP
T4 sequence 2: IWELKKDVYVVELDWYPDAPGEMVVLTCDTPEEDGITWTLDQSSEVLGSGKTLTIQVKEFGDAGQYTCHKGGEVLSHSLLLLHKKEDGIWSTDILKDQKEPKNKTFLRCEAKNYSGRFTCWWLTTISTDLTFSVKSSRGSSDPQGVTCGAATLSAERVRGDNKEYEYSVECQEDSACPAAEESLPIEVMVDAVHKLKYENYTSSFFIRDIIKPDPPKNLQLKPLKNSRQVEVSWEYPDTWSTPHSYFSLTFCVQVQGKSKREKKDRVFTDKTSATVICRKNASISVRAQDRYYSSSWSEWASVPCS


Tests used:
recombinant human IL-23 [1] = target: T1, recombinant human IL-23; assay: cell-based or functional assay
human IL-12 = target: T2, human IL-12; assay: cell-based or functional assay
Human IL-23 no linker = target: T3, Human IL-23 no linker; assay: SPR, ProteOn XPR36, global 1:1 fit
Experimental: B) Affinities were measured for humanized antibodies derived from mouse antibody 6B8.

[2] = target: T4, natural human IL-23 from activated …; assay: cell-based or functional assay
recombinant human IL-23 [3] = target: T1, recombinant human IL-23; assay: BLI, Fortebio Octet; hybridoma-derived antibody
Experimental: Kinetics and binding affinities were measured using the Fortebio OCTET® (Fortebio, Menlo Park, Calif.) using material generated from hybridoma following single column purification.

cynomologous IL-23 = target: T5, cynomologous IL-23 (cynomolgus monkey); assay: SPR, ProteOn XPR36, global 1:1 fit
T5 construct: also called cynomolgus IL-23; cynomolgus monkey IL-23

recombinant human IL-23 [4] = target: T1, recombinant human IL-23; assay: cell-based or functional assay; remark: listed apart in the source

Binder	IC50, IL-23 stimulated IL-17 production from mouse splenocytes (recombinant human IL-23 [1])	Average pg/ml IFN-γ +/- Standard Deviation, human PHA-derived T cell blasts with 1 ng/ml IL-12 (no antibody: 532 +/- 51; unstimulated: 87 +/- 7) (human IL-12)	Kd (Human IL-23 no linker)	koff (Human IL-23 no linker)	kon (Human IL-23 no linker)	IC50, IL-23 stimulated IL-17 production from mouse splenocytes [2]	Kd (recombinant human IL-23 [3])	koff (recombinant human IL-23 [3])	kon (recombinant human IL-23 [3])	Kd (cynomologous IL-23)	IC50, IL-23 induced STAT3 phosphorylation in human DB cells (phospho-STAT3 ELISA) (recombinant human IL-23 [4])	koff (cynomologous IL-23)	kon (cynomologous IL-23)
34D9 (antibody, V domains shown, Mouse monoclonal antibody from hybridoma; also called 34D9Vk; 34D9VH7) VH: EVQLQQSGPELVKPGASVKIPCKASGYTFTDYNMDWVKKSHGKSLEWIGDINPHNGGTIYNQKFKGKATLTVDKSSSTAHMELRSLTSEDTAVYYCARNYYGSSYGWYFDVWGTGTTVTVSS VL: DIMMTQSHKFMSTSVGDRVSITCKASQDVGNAVVWYQQKPGQSPKLLIYWASTRHIGVPDRFTGSGSGTDFTLTITNVQSEDLADYFCQQYSSYLTFGAGTKLELK	510 pM	–	–	–	–	456 pM	0.544 nM	1.87e-06 s⁻¹	3440 M⁻¹ s⁻¹	–	–	–	–
Antibody A (antibody, human IgG1, kappa, L234A L235A, V domains shown, Humanized 6B8, human IgG1-KO (L234A/L235A) / kappa; also called 6B8-IgG1KO-2 with IgK-66; 6B8CVH-02 / 6B8CVK-66) VH: QVQLVQSGAEVKKPGSSVKVSCKASGYTFTDQTIHWMRQAPGQGLEWIGYIYPRDDSPKYNENFKGKVTITADKSTSTAYMELSSLRSEDTAVYYCAIPDRSGYAWFIYWGQGTLVTVSS VL: DIQMTQSPSSLSASVGDRVTITCKASRDVAIAVAWYQQKPGKVPKLLIYWASTRHTGVPSRFSGSGSRTDFTLTISSLQPEDVADYFCHQYSSYPFTFGSGTKLEIKR	5 pM and 15 pM	497 pg/ml IFN-γ	< 0.001 nM	–	–	1 pM	–	–	–	< 1 pM	–	–	–
Chimeric 6B8 (antibody, V domains shown) VH: QVQLQQSDAELVKPGTSVKTSCKISGNTFTDQTIHWMKQRPEQGLEWIGYIYPRDDSPKYNENFKGKATLTADKSSSTAYMQLNSLTSEDSAVYFCAIPDRSGYAWFIYWGQGTLVTVSS VL: DIVMTQSHKFLSTSVGDRVTITCKASRDVAIAVAWYQQKPGQSPKLLLFWASTRHTGVPDRFTGSGSRTDFTLTISNVQSEDLADYFCHQYSSYPFTFGSGTKLEIK	26 pM and 37 pM and 57 pM	523 pg/ml IFN-γ	–	–	–	5 pM and 2 pM and 6 pM and 3 pM	–	–	–	–	–	–	–
Mouse antibody 6B8 (antibody, V domains shown, Mouse monoclonal antibody from hybridoma; also called Mouse 6B8; 6B8Vk) VH: QVQLQQSDAELVKPGTSVKTSCKISGNTFTDQTIHWMKQRPEQGLEWIGYIYPRDDSPKYNENFKGKATLTADKSSSTAYMQLNSLTSEDSAVYFCAIPDRSGYAWFIYWGQGTLVTVSS VL: DIVMTQSHKFLSTSVGDRVTITCKASRDVAIAVAWYQQKPGQSPKLLLFWASTRHTGVPDRFTGSGSRTDFTLTISNVQSEDLADYFCHQYSSYPFTFGSGTKLEIK	13 pM	–	0.0245 nM	1.38e-05 s⁻¹	557000 M⁻¹ s⁻¹	–	< 0.001 nM	< 1e-06 s⁻¹	–	–	–	–	–

Now from value to binder:

IC50, IL-23 stimulated IL-17 production from mouse splenocytes (recombinant human IL-23 [1])	Average pg/ml IFN-γ +/- Standard Deviation, human PHA-derived T cell blasts with 1 ng/ml IL-12 (no antibody: 532 +/- 51; unstimulated: 87 +/- 7) (human IL-12)	Kd (Human IL-23 no linker)	koff (Human IL-23 no linker)	kon (Human IL-23 no linker)	IC50, IL-23 stimulated IL-17 production from mouse splenocytes [2]	Kd (recombinant human IL-23 [3])	koff (recombinant human IL-23 [3])	kon (recombinant human IL-23 [3])	Kd (cynomologous IL-23)	IC50, IL-23 induced STAT3 phosphorylation in human DB cells (phospho-STAT3 ELISA) (recombinant human IL-23 [4])	koff (cynomologous IL-23)	kon (cynomologous IL-23)	Binder
31 pM	511 pg/ml IFN-γ	–	–	–	–	–	–	–	–	–	–	–	Chimeric 18E5 (antibody, V domains shown) VH: EVQLQQSGPELVKPGAAVKMSCKASGYTFTRYLIHWVKQKPGQGLEWIGYINPYNDGTKYNEKFKGKATLTSDKSSSTAYMELSSLTSEDSAVYYCTSNWDLDYWGQGTTLTVSS VL: DIVMTQSPATLSVTPGDRVSLSCRASQSISDYLYWYQQKSHESPRLLIKFASQSISGIPSRFTGSGSGSDFTLSIDSVEPDDVGVFFCQNGHSFPFTFGGGTKLEIK
–	–	0.0158 nM	5.75e-06 s⁻¹	360000 M⁻¹ s⁻¹	–	–	–	–	–	–	–	–	antibody C1273 (disclosed in WO 2007/005955) (antibody, V domains shown) VH: DVNLVESGGGLVKPGGSLKLSCAASGFTFSSYTMSWVRQTPEKRLEWVATISSGGTYTYYPDSVKGRFTISRDNAKNTLYLQMSSLKSEDTAMFYCTRDNHAYDRGPFFDYWGQGATLTVSS VL: DIVMSQSPSSLVVSVGEKVTMSCKSSQNLFYRSNQKNHLAWYQQKPGQSPTLLIYWTSTRESGVPDRFTGSGSGTDFTLTISRVKAEDLAVYYCQQYYSYPPTFGGGTKLEIK
236 pM and 225 pM and 614 pM and 458 pM	539 pg/ml IFN-γ	0.135 nM	4.93e-05 s⁻¹	366000 M⁻¹ s⁻¹	133 pM and 125 pM	–	–	–	15.9 pM	158 pM	3.29e-05 s⁻¹	2.07e+06 M⁻¹ s⁻¹	Antibody D (antibody, human IgG1, kappa, L234A L235A, V domains shown, Humanized 6B8, human IgG1-KO (L234A/L235A) / kappa; also called 6B8-IgG1KO-5 with IgK-65; 6B8CVH-05 / 6B8CVK-65) VH: QVQLVQSGAEVKKPGSSVKVSCKASGFTFTDQTIHWVRQAPGQGLEWMGYIYPRDDSPKYNENFKGKVTLTADKSTSTAYMELSSLRSEDTAVYYCAIPDRSGYAWFIYWGQGTLVTVSS VL: DIQMTQSPSSLSASVGDRVTITCKASRDVAIAVAWYQQKPGKVPKLLLFWASTRHTGVPDRFSGSGSGTDFTLTISSLQPEDLADYYCHQYSSYPFTFGQGTKLEIKR
–	495 pg/ml IFN-γ	0.0363 nM	1.65e-05 s⁻¹	454000 M⁻¹ s⁻¹	16 pM and 32 pM	–	–	–	2.9 pM	132 pM and 80 pM	9.36e-06 s⁻¹	3.23e+06 M⁻¹ s⁻¹	Antibody C (antibody, human IgG1, kappa, L234A L235A, V domains shown, Humanized 6B8, human IgG1-KO (L234A/L235A) / kappa; also called 6B8-IgG1KO-2 with IgK-65; 6B8CVH-02 / 6B8CVK-65) VH: QVQLVQSGAEVKKPGSSVKVSCKASGYTFTDQTIHWMRQAPGQGLEWIGYIYPRDDSPKYNENFKGKVTITADKSTSTAYMELSSLRSEDTAVYYCAIPDRSGYAWFIYWGQGTLVTVSS VL: DIQMTQSPSSLSASVGDRVTITCKASRDVAIAVAWYQQKPGKVPKLLLFWASTRHTGVPDRFSGSGSGTDFTLTISSLQPEDLADYYCHQYSSYPFTFGQGTKLEIKR
–	537 pg/ml IFN-γ	< 0.001 nM	< 1e-06 s⁻¹	517000 M⁻¹ s⁻¹	9 pM and 8 pM	–	–	–	< 1 pM	73 pM and 84 pM	< 1e-06 s⁻¹	2.99e+06 M⁻¹ s⁻¹	Antibody B (antibody, human IgG1, kappa, L234A L235A, V domains shown, Humanized 6B8, human IgG1-KO (L234A/L235A) / kappa; also called 6B8-IgG1KO-5 with IgK-66; 6B8CVH-05 / 6B8CVK-66) VH: QVQLVQSGAEVKKPGSSVKVSCKASGFTFTDQTIHWVRQAPGQGLEWMGYIYPRDDSPKYNENFKGKVTLTADKSTSTAYMELSSLRSEDTAVYYCAIPDRSGYAWFIYWGQGTLVTVSS VL: DIQMTQSPSSLSASVGDRVTITCKASRDVAIAVAWYQQKPGKVPKLLIYWASTRHTGVPSRFSGSGSRTDFTLTISSLQPEDVADYFCHQYSSYPFTFGSGTKLEIKR
